Source: patent publication US20140024806A1
Square brackets hold non-standard residues; d marks the D form. Ends that are not written are not given here. Hyp = O=C(O)[C@@H]1C[C@@H](O)CN1

Columns and labels:
[1] = molecular target: growth hormone receptor (GHR) on NIH 3T3-L1 cells (Mus musculus (Mouse)) (UniProt P16882); experiment: radioreceptor competition assay, [125I]-hGH on GHR-expressing NIH 3T3-L1 cell monolayers
[2] = molecular target: anti-hGH-(SO)10 antibodies (1:10,000 serum dilution); experiment: competition ELISA, hGH-(SO)10-coated plates, serum 1:10,000, 100 ug/ml (SO)10 as competitive inhibitor

Chain of UniProt P16882 (P16882 25-650 limits assumed, form in doubt): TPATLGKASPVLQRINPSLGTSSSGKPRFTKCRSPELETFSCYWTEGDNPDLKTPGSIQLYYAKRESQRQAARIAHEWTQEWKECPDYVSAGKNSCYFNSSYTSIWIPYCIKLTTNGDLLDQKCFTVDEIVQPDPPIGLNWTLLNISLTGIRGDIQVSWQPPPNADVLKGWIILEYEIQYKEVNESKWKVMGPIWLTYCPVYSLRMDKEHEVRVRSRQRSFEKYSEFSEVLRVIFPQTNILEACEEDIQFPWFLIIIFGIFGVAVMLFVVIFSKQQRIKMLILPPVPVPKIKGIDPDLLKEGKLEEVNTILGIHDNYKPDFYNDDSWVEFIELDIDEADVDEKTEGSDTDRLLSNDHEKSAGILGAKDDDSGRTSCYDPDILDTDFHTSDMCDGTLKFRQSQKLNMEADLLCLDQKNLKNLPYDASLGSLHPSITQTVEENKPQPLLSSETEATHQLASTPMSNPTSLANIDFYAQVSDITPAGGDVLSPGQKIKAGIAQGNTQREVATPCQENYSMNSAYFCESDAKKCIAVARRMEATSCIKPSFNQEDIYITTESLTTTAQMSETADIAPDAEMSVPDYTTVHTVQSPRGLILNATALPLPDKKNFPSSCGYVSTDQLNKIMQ

| EC50 [1] [nM] | percent inhibition [2] [%] | Molecule |
| --- | --- | --- |
| 10 | – | hGH-(SO)10-EGFP fusion glycoprotein (human growth hormone, (Ser-Hyp)10, enhanced green fluorescent protein) (ligand) |
| – | 5 | S[Hyp]S[Hyp]S[Hyp]S[Hyp]S[Hyp]S[Hyp]S[Hyp]S[Hyp]S[Hyp]S[Hyp] (also: O-glycosylated, sites not given here) [purified (SO)10 glycomodule] |
